Experimental data from the RNAGym collection of RNA variant scans (doi:10.1073/pnas.2313332121).

B1: TPR t1 (parent)
chain: GACCAAUCUGCCCUCAGAGCUCGAGAACAUCUUCGGAUGCAGAGGAGGCAGGCUUCGGUGGCGCGAUAGCGCCAACGUCCUCAACCUCCAAUGCAUCCCACCACAUGAUGAUGCCUGAAGAGCCUUGGUUUUUUG

Variants of: B1
Experiment: polymerase ribozyme fitness, log enrichment relative to wild type (log ratio); higher = more active; in vitro selection for triplet polymerase activity
Outline: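 One round of in vitro selection, in triplicate, was applied to PCR-built, transcribed mutant libraries of each subunit of a heterodimeric triplet polymerase ribozyme. The steps were annealing with a biotinylated primer, partner subunit and triplets, incubation frozen at −7 °C, gel excision of extended constructs, streptavidin-bead capture and RT-PCR. Fitness is the logarithm, base 2, of genotype enrichment over wild-type enrichment from inverse-variance-weighted replicate averages of Illumina-sequenced inputs and outputs, keeping genotypes with ≥10 input reads and ≥1 read per output.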

Variant | polymerase ribozyme fitness (log ratio)
C20U G69U G120C | -0.787
G17C C72U | -4.11
A29U C49U C64U U106A C115A U132C | -2.46
A2C G63A | -2.37
U33G U54G G58C A74G G120C | -5.75
C62U A74U U78A | -0.615
C8U C56U U96C | 0.0221
C72G C88A C94U G120C | -1.57
C31A U54C U96A A111G | -5.95
C56G U116C | -0.924
A6U C8G G44U C49A G77U G120C U130G | -2.14
G52U A83U C98U | -2.49
C11G C53G C114U G127C | -1.98
G52C C89G G127C | -2.37
C4G C97A | -5.92
U54C G61C C73A G93U | -2.61
G10C C15U A41C C53G C89U | -3.28
C72U C89A | -1.22
A16G U92C U129C | -3.37
C56G G57C G58A C104A | -3.33
G17U C49U | -2.42
G48C C72G U78G U92A C124G | -2.22
C4G A18C | -3.16
C12A C15U G71U A121C G127U | 0.118

Variant | polymerase ribozyme fitness (log ratio)
C28U G71C C124U | -2.51
G47A U78G U81A C86U U133G | -1.35
A16U G17A C20A C49A C73U | -4.77
C3G G93U C98U G128C | -2.57
C34U C70G | -5.34
A74G C114G | -2.02
C53U G113U | -1.43
C11G A41U G71C A90G G110U G135A | -5.24
G60A C114A A121G | -0.404
A6C A24G A37U G48C G69C C79G C85G C101A C124U | -5.82
G10A G39U G51A C70U | -5.24
C11A C49A G69A G113A G128C | -6.11
C11A G39A | -2.5
C40A C73U U78A | -0.967
A46U G58C C70A | -2.22
A68U A90G C101G G113A G117C | -5.75
U21A A27C A46G C76G | -2.54
C115A G127U | -2.8
G44U A46U G117U | -4.65
U9G G19A A37U C70U U78A | -4.73
C53G U92A | -3.48
C11A G61C | -2.39
A46U G60A C80A A121G | -1.19
C49A G60A G135C | -0.655

Variant | polymerase ribozyme fitness (log ratio)
C94U A121G | 1.59
G93C C124U U125C | -1.05
C11U C79G | -1.69
C40G | -0.921
G61A A68G | -2.69
A18C A27G A111U G128C | -6.38
U109G C114G | -4.93
C88G C104U C123G | 1.53
G10C G61U | -1.1
G45A U78C C86A G120U | -2.19
C28U C123G | -0.0468
G47C G61A G69A A111C U116A | -6.11
G19A G93U | -4.24
C8G C89U | -0.514
A6U G58A A83U U106A | 0.545
A27C C53A C94G | -4.6
C20G C73U A83C | -4.27
G60A C88U G122A | -2.19
C4G U112C | -0.0354
A2C G128U | -2.55
A108G U112A | -2.86
G10U U55A G71C | -1.11
C34U C70G C72U | -7.09
C40A G45U | -2.77

Variant | polymerase ribozyme fitness (log ratio)
G120U U126G U132A | -0.734
U55C G120U C123G U131A | -0.058
C12G C64A U133A | -5.1
G63C G113A | -2.11
G44A A105G | -4.47
A83C C114G | -2.24
G44A G48U C53A G60U | -1.14
G63A G127U | -1.36
C12A A41U A43U C104U U129G | -4.67
U9G C40U C114G G122A C123G | -5.42
C70A G93A U116C C123A | -5.19
G71U C88U U130G U131G | -2.2
G52U U132A | -0.57
C11A U21C G52C A121C | 0.244
A16C C40U G52A U59G U112A | -1.53
U9G C94A U125G | -1.1
U32C G113U | -2.9
G61A G127U | -1.35
C34A G71C U129C | -5.07
C49U C82A U87C U96A | -1.66
C3A G23C C40A A84C G110C | -5.53
A26G G71A | -2.97
G23A C40A | -4.86
A5C A37U G69A C123A G128A | -4.31

Variant | polymerase ribozyme fitness (log ratio)
U116C | -0.392
U7G U132C | 0.108
C20G G61U C79A G117C C123A | -6.44
C12G G61C C104U C115G U133C | -5.69
C22G C115A | -4.07
G69U C114G | -0.996
C3U A37U C40A G60U | -1.23
U9G A18C C40G A91C G93C C94A A105G | -5.58
G63U U96C | -1.31
G35U C64U A90U U106A C115G G117A A119G | -6.88
C56U C73A | -0.837
G63U A121U | 0.749
C28G G69U A121C | 0.386
C62U C80G | -6.35
G47U C56U G113U | -4.43
C40A G69C U130C | -2.11
G23A G48A C86G | -6.91
G60A U112G G120A | -2.56
G52U C73G U92C C104U U116C U129A | -4.98
A43U A121C | 0.506
C56A G71U U78G A105G A119U G122A | -5.65
C12A U87A C89G C94A G113A | -6.04
G60U G135U | -0.871
C11A C20U C73A A118U U133A | -2.94

Variant | polymerase ribozyme fitness (log ratio)
A2G A46C | -0.998
A6G C22U A43C G45U C94A C124A | -5.87
C53A C114A | -1.87
C4U G19A G71A G120C | -3.53
A43C G47U | -3.64
G69U U78C C102U | 0.0221
C12G C94G | -1.02
C20A C72A A118U | -1.46
C40G G61A C104A U106C | -1.7
C31G C88G G110A U126G | -6.03
G48C A100U | -1.76
U14G A46U A74G C101A | -3.18
C49U U106A C114U | -4.43
A50C C56U | -0.0268
U7G U78G C80G G135U | -5.8
C56U U92G | -2.12
A6C U9G G69U A83G A91C G117U G135A | 0.71
G10C G60U G135C | -0.497
C11G C49A G61A G120U | 2.28
U14G A43G G52A C53A G77C A100U | -5.52
C4A U7G C31G C70G C86U U87C U112A | -5.92
A6C G61U U87A | -0.857
C79A C115A | -2.1
U9G G35U | -4.99

Variant | polymerase ribozyme fitness (log ratio)
U112G C123A | -2
C12U G61A U106A C114A | -0.698
U21G C123G | 0.364
A16G C53G A84C C88A C101G | -4.3
G71U A105C | -2.99
A16C C53U C86G | -2.99
G58C A83C | 0.207
G63A G117U | -3.18
C13A A50U G71U | -2.57
C70A U129C | -2.68
U7G A50G U54C G128U | -1.5
A6U G61C | -1.18
G44A G60U | -0.542
C64U G117C | -2.58
U96A A111G | -1.84
G60C A95G | 0.473
G19U C40U | -3
C40A C86U G110U U112C | -3.84
C11U A18G G19C A43G G63U | -4.05
A16G U32A A50C C88U C123G U125A | -3.77
G44C U112C | 0.766
A6C U9G G57U G113U G128U | -3.88
G36C C64U | -1.65
